Measurements taken from US9095624.

Target: EGFR receptors of A431 human epidermoid carcinoma cells (human) (UniProt P00533)

Substance: DTox-HMP-NLS-EGF after refolding (from UniProt P00588 198-384; P24232 1-396; P01133 971-1023)
- Ka: 5.4e+13 M⁻¹
- fold increase of affinity after refolding against before refolding: > 2.8 fold
